We go through seven molecules from US7666644B2, “Glyphosate-N-acetyltransferase (GAT) genes” (Verdia, Inc., priority 2004, dated 2010).

In data set [1] the test system is O=C(O)CNCP(=O)(O)O. The data set can be described thus: purified protein, by the assay type. To be noted: other: 25 mM Hepes, pH 6.8, 10% ethylene glycol.
Procedure: (§1) GAT activity of several GAT polypeptides of the present invention was evaluated with respect to a number of amino acid substrates. The GAT polypeptide, AcCoA and amino substrate were incubated in 25 mM Hepes, pH 6.8, 10% ethylene glycol in the wells of a 96-well polystyrene plate. After 30 minutes, the reactions were stopped by the addition of 30 μl of 10 mM 5,5′-dithiobis-2-nitrobenzoate (DTNB) in 500 mM Tris, pH 7.5. After 2 minutes, absorbance was read at 412 nm in a Spectramax Plus plate reader (Molecular Devices, Sunnyvale, Calif.).
For data set [2], the system named is N[C@@H](CC(=O)O)C(=O)O. The data set can be described thus: purified protein, by the assay type. To be noted: other: 25 mM Hepes, pH 6.8, 10% ethylene glycol.
Procedure: as §1
Data set [3] in a line: Kinetic parameters by continuous spectrophotometric assay in the presence of 20 mM KCl, protein quantified via UV absorbance. The following applies: templates GAT 24-5H5 or GAT 25-8H7. It is filed as biochemical. On the procedure:
The further evolved gat genes were first selected for growth in E. coli in minimal M9 medium as described in Example 8, except that 5 mM rather than 1 mM glyphosate was used in the selection. Proteins were purified as described in Example 6 above.
Protein concentrations were determined by UV absorbance at 205 nm. The extinction coefficient was determined by the method described by Scopes (1994; Protein Purification, Principles and Practice, Springer, NewYork) according to the formula E (mg ml^−1 cm^−1)=27+120(A280/A205)=30.5. Prior to quantitation by UV absorbance the protein solution was buffer-exchanged into 50 mM Na2SO4 using a NAP-5 column (Amersham-Pharmacia Biotech).
Error bars represent the standard deviation of multiple assays, where available.

Broadly, the kcat is the number of substrate molecules converted per active site and unit of time at saturation. As a reminder, the kcat/Km is the second-order rate constant that governs catalysis at low substrate concentration. Turning to “non-native GAT polypeptide 25-8H7 (glyphosate-N-acetyltransferase), SEQ ID NO: 907 (Bacillus licheniformis DSM 13 = ATCC 14580; E119R/E14D/E65Q/E67K/E68K/G37R/G38S/I132T/I135V/I15L/I19V/I53V/I91V/K101R/K144R/K58Q/L105M/L106I/L145I/L26I/L36T/L97I/M75V/R47G/R92K/T33S/T89S/V114A/Y130F/Y31F/Y45F)”, in data set [1], the Km is 0.05 MM, the kcat is 24.7 ± 1.09 s⁻¹ and the specificity constant (kcat/Km) is 493000 M⁻¹ s⁻¹. For the same molecule, in data set [2], the Km is given as 4.56 ± 0.112 MM, the kcat amounted to 11.7 ± 0.207 s⁻¹ and the kcat/Km was 2570 M⁻¹ s⁻¹.

B1: R12G1: further evolved GAT enzyme, SEQ ID NO 917 (protein)
chain: MIEVKPINAEDTYDLRHRVLRPNQPIEACMFESDLTRGAFHLGGFYGGKLISVASFHQAEHTELQGKKQYQLRGVATLEGYREQKAGSSLVKHAEEILRKRGADMIWCNARTSASGYYRKLGFSEQGEVFDTPPVGPHILMYKRIT
modifications: R12G1
In the case of B1, the “GAT activity compared with the template polypeptides” value in data set [3] was “extremely high GAT activities comparable to those of the template polypeptides”.

B2: R12G5: further evolved GAT enzyme, SEQ ID NO:925 (protein)
chain: MIEVKPINAEDTYELRHRVLRPNQPIEACMFDSDLTRGAFHLGGFYGGKLISVASFHQAEHSELQGKKQYQLRGVATLEGYREQKAGSSLVKHAEEILRKRGADMIWCNARTSASGYYRKLGFSEQGEVFDTPPVGPHILMYKRIT
modifications: R12G5
Consider B2, for which the “GAT activity compared with the template polypeptides” value in data set [3] was “extremely high GAT activities comparable to those of the template polypeptides”.

B3: R12G4: further evolved GAT enzyme, SEQ ID NO:923 (protein)
chain: MIEVKPINAEDTYELRHRVLRPNQPIEACMFDSDLTRSAFHLGGFYGGKLISVASFHQAEHSELQGKKQYQLRGVATLEGYREQKAGSSLVKHAEEILRKRGADMIWCNARTSASGYYRKLGFSEQGEVFDTPPVGPHILMYKRIT
modifications: R12G4
Regarding B3, the “GAT activity compared with the template polypeptides” value in data set [3] is recorded as “extremely high GAT activities comparable to those of the template polypeptides”.

B4: R12G6: further evolved GAT enzyme, SEQ ID NO:927 (protein)
chain: MIEVKPINAEDTYDLRHRVLRPNQPIEACMFDNDLTRSAFHLGGFYGGKLISVASFHQAEHSELQGKKQYQLRGVATLEGYREQKAGSSLVKHAEEILRKRGADMIWCNARTSASGYYRKLGFSEQGEVFDTPPVGPHILMYKRIT
modifications: R12G6
On to B4, for which, in data set [3], the “GAT activity compared with the template polypeptides” value was “extremely high GAT activities comparable to those of the template polypeptides”.

B5: R12G3: further evolved GAT enzyme, SEQ ID NO:921 (protein)
chain: MIEVKPINAEDTYDLRHRVLRPNQPIEACMFDNDLTRGAFHLGGFYGGKLISVASFHQAEHSELQGKKQYQLRGVATLEGYREQKAGSSLVKHAEEILRKRGADMIWCNARTSASGYYRKLGFSEQGEVFDTPPVGPHILMYKRIT
modifications: R12G3
On to B5, for which the “GAT activity compared with the template polypeptides” value in data set [3] is recorded as “extremely high GAT activities comparable to those of the template polypeptides”.

B6: R12G2: further evolved GAT enzyme, SEQ ID NO:919 (protein)
chain: MIEVKPINAEDTYDLRHRVLRPNQPIEACMFESDLTRSAFHLGGFYGGKLISVASFHQAEHTELQGKKQYQLRGVATLEGYREQKAGSSLVKHAEEILRKRGADMIWCNARTSASGYYRKLGFSEQGEVFDTPPVGPHILMYKRIT
modifications: R12G2
Take B6: in data set [3], the “GAT activity compared with the template polypeptides” value was “extremely high GAT activities comparable to those of the template polypeptides”.
